{"source": "patent US20030049211A1", "about": "(published 2003)"}
{"target": "T1, human PTHrP (1-34) (human)", "T1 construct": "Synthetic peptide (Peninsula; Peptide Research Institute), coated on ELISA plates at 1 ug/ml; added at 1 ng/ml final in the cAMP assay; also called parathyroid hormone related peptide (1-34)", "experiment": "solid phase RIA of hybridoma culture supernatant", "source_text": "The hybridomas thus obtained was suspended into RPMI-1640 medium containing 15% FCS supplemented with OPI-supplement (Sigma), followed by unification of the hybridomas by limiting dilution method."}
{"binder": "mouse monoclonal antibody #23-57-137-1 against human PTHrP (1-34) (antibody, V domains shown, Mouse antibody from hybridoma culture supernatant; mouse lambda L-chain; H-chain cloned with an MHC-G1 primer) VH: EVQLVESGGDLVKPGGSLKLSCAASGFTFSSYGMSWIRQTPDKRLEWVATISSGGSYTYYPDSVKGRFTISRDNAKNTLYLQMSSLKSEDTAMFYCARQTTMTYFAYWGQGTLVTVSA VL: QLVLTQSSSASFSLGASAKLTCTLSSQHSTYTIEWYQQQPLKPPKYVMDLKQDGSHSTGDGIPDRFSGSSSGADRYLSISNIQPEDEAMYICGVGDTIKEQFVYVFGGGTKVTVLG", "binding result": "binds"}
{"target": "T1, human PTHrP (1-34)", "experiment": "ELISA, plate coated with human PTHrP (1-34)", "description": "An ELISA plate for determining antigen-binding ability was prepared as follows. Each well of a 96-well ELISA plate (Maxisorp, NUNC) was coated with 100 μl of a coating buffer containing 1 μg/ml of human PTHrP (1-34) and then blocked with 200 μl of a dilution buffer. Subsequently, each well was added with each of the serial dilutions of the COS-7 cell culture supernatant in which each of the hybrid antibodies and humanized antibodies was expressed, or added with each of the serial dilutions of each of the hybrid antibodies and humanized antibodies in a purified form. The plate was incubated at room temperature and washed with PBS-Tween 20. Subsequently, each well was added with 100 μl of alkaline phosphatase-conjugated goat anti-human IgG antibody (TAGO). The plate was incubated at room temperature and washed with PBS-Tween 20. Subsequently, each well was added with 1 mg/ml of a substrate solution (“Sigma 104”, p-nitrophenylphosphoric acid, SIGMA). The solution was measured on its absorbance at 405 nm using Microplate Reader (Bio Rad)."}
{"binder": "humanized #23-57-137-1 antibody having L-chain version \"s\" (antibody, V domains shown, Humanized H-chain version a with human Cgamma1; human lambda C-region; COS-7 expressed; also called hMBC1HcDNA/pCOS1 and hMBC1Lsλ/pCOS1) VH: QVQLVESGGGVVQPGRSLRLSCAASGFTFSSYGMSWVRQAPGKGLEWVATISSGGSYTYYPDSVKGRFTISRDNSKNTLYLQMNSLRAEDTAVYYCARQTTMTYFAYWGQGTLVTVSS VL: QLVLTQSPSASASLGASVKLTCTLSSQHSTYTIEWYQQQPEKGPKYVMDLKQDGSHSTGDGIPDRFSGSSSGAERYLTISSLQSEDEADYICGVGDTIKEQFVYVFGGGTKLTVLG", "binding result": "binds"}
{"binder": "humanized #23-57-137-1 antibody having L-chain version \"m\" (antibody, V domains shown, Humanized H-chain version a with human Cgamma1; human lambda C-region; COS-7 expressed; also called hMBC1HcDNA/pCOS1 and hMBC1Lmλ/pCOS1) VH: QVQLVESGGGVVQPGRSLRLSCAASGFTFSSYGMSWVRQAPGKGLEWVATISSGGSYTYYPDSVKGRFTISRDNSKNTLYLQMNSLRAEDTAVYYCARQTTMTYFAYWGQGTLVTVSS VL: QLVLTQSPSASASLGASVKLTCTLSSQHSTYTIEWYQQQPEKGPRYLMDLKQDGSHSTGDGIPDRFSGSSSGAERYLTISSLQSEDEADYYCGVGDTIKEQFVYVFGGGTKLTVLG", "binding result": "binds"}
{"binder": "humanized #23-57-137-1 antibody having L-chain version \"j\" (antibody, V domains shown, Humanized H-chain version a with human Cgamma1; human lambda C-region; COS-7 expressed; also called hMBC1HcDNA/pCOS1 and hMBC1Ljλ/pCOS1) VH: QVQLVESGGGVVQPGRSLRLSCAASGFTFSSYGMSWVRQAPGKGLEWVATISSGGSYTYYPDSVKGRFTISRDNSKNTLYLQMNSLRAEDTAVYYCARQTTMTYFAYWGQGTLVTVSS VL: QLVLTQSPSASASLGASVKLTCTLSSQHSTYTIEWYQQQPEKGPKYLMDLKQDGSHSTGDGIPDRFSGSSSGAERYLTISSLQSEDEADYYCGVGDTIKEQFVYVFGGGTKLTVLG", "binding result": "binds"}
{"binder": "human FR1/mouse FR2,3,4 hybrid antibody, L-chain hmmMBC1L(λ) (antibody, V domains shown, H-chain from hMBC1HcDNA/pCOS1 (humanized version a, human Cgamma1); human lambda C-region; also called FR1/FR2 hybrid antibody) VH: QVQLVESGGGVVQPGRSLRLSCAASGFTFSSYGMSWVRQAPGKGLEWVATISSGGSYTYYPDSVKGRFTISRDNSKNTLYLQMNSLRAEDTAVYYCARQTTMTYFAYWGQGTLVTVSS VL: QLVLTQSPSASASLGASVKLTCTLSSQHSTYTIEWYQQQPLKPPKYVMDLKQDGSHSTGDGIPDRFSGSSSGADRYLSISNIQPEDEAMYICGVGDTIKEQFVYVFGGGTKVTVL", "binding result": "binds"}
{"binder": "humanized #23-57-137-1 antibody having L-chain version \"t\" (antibody, V domains shown, Humanized H-chain version a with human Cgamma1; human lambda C-region; COS-7 expressed; also called hMBC1HcDNA/pCOS1 and hMBC1Ltλ/pCOS1) VH: QVQLVESGGGVVQPGRSLRLSCAASGFTFSSYGMSWVRQAPGKGLEWVATISSGGSYTYYPDSVKGRFTISRDNSKNTLYLQMNSLRAEDTAVYYCARQTTMTYFAYWGQGTLVTVSS VL: QLVLTQSPSASASLGASVKLTCTLSSQHSTYTIEWYQQQPEKGPRYVMDLKQDGSHSTGDGIPDRFSGSSSGAERYLTISSLQSEDEADYICGVGDTIKEQFVYVFGGGTKLTVLG", "binding result": "binds"}
{"binder": "mouse FR1,2/human FR3,4 hybrid antibody, L-chain m/hMBC1Laλ (antibody, V domains shown, H-chain from hMBC1HcDNA/pCOS1 (humanized version a, human Cgamma1); human lambda C-region) VH: QVQLVESGGGVVQPGRSLRLSCAASGFTFSSYGMSWVRQAPGKGLEWVATISSGGSYTYYPDSVKGRFTISRDNSKNTLYLQMNSLRAEDTAVYYCARQTTMTYFAYWGQGTLVTVSS VL: QLVLTQSSSASFSLGASAKLTCTLSSQHSTYTIEWYQQQPLKPPKYVMDLKQDGSHSTGDGIPDRFSGSSSGAERYLTISSLQSEDEADYYCGVGDTIKEQFVYVFGGGTKLTVL", "binding result": "binds"}
{"binder": "humanized #23-57-137-1 antibody having L-chain version \"q\" (antibody, V domains shown, Humanized H-chain version a with human Cgamma1; human lambda C-region; COS-7 expressed (also CHO); also called hMBC1HcDNA/pCOS1 and hMBC1Lqλ/pCOS1) VH: QVQLVESGGGVVQPGRSLRLSCAASGFTFSSYGMSWVRQAPGKGLEWVATISSGGSYTYYPDSVKGRFTISRDNSKNTLYLQMNSLRAEDTAVYYCARQTTMTYFAYWGQGTLVTVSS VL: QLVLTQSPSASASLGASVKLTCTLSSQHSTYTIEWYQQQPEKGPKYLMDLKQDGSHSTGDGIPDRFSGSSSGAERYLTISSLQSEDEADYICGVGDTIKEQFVYVFGGGTKLTVLG", "binding result": "binds"}
{"binder": "humanized #23-57-137-1 antibody having L-chain version \"r\" (antibody, V domains shown, Humanized H-chain version a with human Cgamma1; human lambda C-region; COS-7 expressed (also CHO); also called hMBC1HcDNA/pCOS1 and hMBC1Lrλ/pCOS1) VH: QVQLVESGGGVVQPGRSLRLSCAASGFTFSSYGMSWVRQAPGKGLEWVATISSGGSYTYYPDSVKGRFTISRDNSKNTLYLQMNSLRAEDTAVYYCARQTTMTYFAYWGQGTLVTVSS VL: QLVLTQSPSASASLGASVKLTCTLSSQHSTYTIEWYQQQPEKGPRYLMDLKQDGSHSTGDGIPDRFSGSSSGAERYLTISSLQSEDEADYICGVGDTIKEQFVYVFGGGTKLTVLG", "binding result": "binds"}
{"binder": "humanized #23-57-137-1 antibody having L-chain version \"l\" (antibody, V domains shown, Humanized H-chain version a with human Cgamma1; human lambda C-region; COS-7 expressed; also called hMBC1HcDNA/pCOS1 and hMBC1Llλ/pCOS1) VH: QVQLVESGGGVVQPGRSLRLSCAASGFTFSSYGMSWVRQAPGKGLEWVATISSGGSYTYYPDSVKGRFTISRDNSKNTLYLQMNSLRAEDTAVYYCARQTTMTYFAYWGQGTLVTVSS VL: QLVLTQSPSASASLGASVKLTCTLSSQHSTYTIEWYQQQPEKGPKYVMDLKQDGSHSTGDGIPDRFSGSSSGAERYLTISSLQSEDEADYYCGVGDTIKEQFVYVFGGGTKLTVLG", "binding result": "binds"}
{"binder": "antibody having both a humanized H-chain version \"a\" and a chimeric L-chain (antibody, V domains shown, Human Cgamma1 H-chain C-region) VH: QVQLVESGGGVVQPGRSLRLSCAASGFTFSSYGMSWVRQAPGKGLEWVATISSGGSYTYYPDSVKGRFTISRDNSKNTLYLQMNSLRAEDTAVYYCARQTTMTYFAYWGQGTLVTVSS VL: QLVLTQSSSASFSLGASAKLTCTLSSQHSTYTIEWYQQQPLKPPKYVMDLKQDGSHSTGDGIPDRFSGSSSGADRYLSISNIQPEDEAMYICGVGDTIKEQFVYVFGGGTKVTVLG", "binding result": "binds"}
{"binder": "humanized #23-57-137-1 antibody having L-chain version \"o\" (antibody, V domains shown, Humanized H-chain version a with human Cgamma1; human lambda C-region; COS-7 expressed; also called hMBC1HcDNA/pCOS1 and hMBC1Loλ/pCOS1) VH: QVQLVESGGGVVQPGRSLRLSCAASGFTFSSYGMSWVRQAPGKGLEWVATISSGGSYTYYPDSVKGRFTISRDNSKNTLYLQMNSLRAEDTAVYYCARQTTMTYFAYWGQGTLVTVSS VL: QLVLTQSPSASASLGASVKLTCTLSSQHSTYTIEWYQQQPEKGPRYVMDLKQDGSHSTGDGIPDRFSGSSSGAERYLTISSLQSEDEADYYCGVGDTIKEQFVYVFGGGTKLTVLG", "binding result": "binds"}
{"binder": "chimeric #23-57-137-1 antibody with L-chain lambda chain C-region (antibody, V domains shown, Mouse V-regions joined to human H-chain C-region Cgamma1 and human lambda C-region (isotype Mcg+Ke+Oz-, EMBL X57819); expressed in COS-7 cells; also called chimeric antibody; MBC1HcDNA/pCOS1 and MBC1L(λ)/neo) VH: EVQLVESGGDLVKPGGSLKLSCAASGFTFSSYGMSWIRQTPDKRLEWVATISSGGSYTYYPDSVKGRFTISRDNAKNTLYLQMSSLKSEDTAMFYCARQTTMTYFAYWGQGTLVTVSA VL: QLVLTQSSSASFSLGASAKLTCTLSSQHSTYTIEWYQQQPLKPPKYVMDLKQDGSHSTGDGIPDRFSGSSSGADRYLSISNIQPEDEAMYICGVGDTIKEQFVYVFGGGTKVTVLG", "binding result": "binds"}
{"binder": "chimeric #23-57-137-1 antibody with L-chain kappa chain C-region (antibody, V domains shown, Mouse V-regions joined to human H-chain C-region Cgamma1 and human kappa C-region (from plasmid HEF-PM1k-gk); expressed in COS-7 cells; also called chimeric antibody; MBC1HcDNA/pCOS1 and MBC1L(κ)/neo) VH: EVQLVESGGDLVKPGGSLKLSCAASGFTFSSYGMSWIRQTPDKRLEWVATISSGGSYTYYPDSVKGRFTISRDNAKNTLYLQMSSLKSEDTAMFYCARQTTMTYFAYWGQGTLVTVSA VL: QLVLTQSSSASFSLGASAKLTCTLSSQHSTYTIEWYQQQPLKPPKYVMDLKQDGSHSTGDGIPDRFSGSSSGADRYLSISNIQPEDEAMYICGVGDTIKEQFVYVFGGGTKVTVLG", "binding result": "binds"}
